The supplement of paper PMC12042874
± gives the uncertainty stated by the source.

experiment: amyloid nucleation score (Sup35N fusion, yeast selection) (log enrichment); library NNK1; higher = more nucleation; inactive = no reads after selection
Procedure, shortened: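 The nucleation score is a DiMSum log enrichment of output over input reads, centred on the mode score of non-aggregating sequences. Sequences under 100 input reads were excluded, and reads came from Illumina sequencing of plasmid inserts. Psi-negative yeast expressing Sup35N fused to peptides of 20 random codons were induced with 100 μM copper sulfate for 24 hours and grown 7 days at 30°C on medium lacking adenine and uracil. Random libraries had three technical output replicates.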

Substance	amyloid nucleation score
TYTGFYCVRKLILVRRVSVW	-0.897 ± 1.6
DLVTSYWKIEGPILRSGGNM	-0.563 ± 0.49
LGFCTLFISMEDQLCVLQIL	-0.546 ± 1.2
FNRCMFHFGDEVVKELL	-0.376 ± 0.91
LAPALRTETQICRRIHSVQL	1.62 ± 0.26
YLINLRFCEREAGFNFLLGR	-1.12 ± 2.7
MSLPYVICQQDR	-0.794 ± 1.4
IRSVGRSLRFMYS	0.204 ± 0.46
MSAIVSHYLVHCKFQSGNSH	3.63 ± 0.12
EYVACVIEDFSVLNVVRQVD	-0.33 ± 0.21
LCLDVLSGLCYFYLQ	0.622 ± 0.59
KRSRYSKR	0.103 ± 0.48
ATRVFLHIATQRSNLAYLPN	-0.189 ± 0.25
SFLSSGINRSRCY	0.154 ± 0.32
YFSVGSCNRYLHWTVQ	5.06 ± 0.075
ATCNSVRARGFTPGHHLAPG	-0.405 ± 1.7
VLCAGLPWYTELVRFSYWAD	-0.642 ± 0.56
TVRFHYQGFTVS	-0.236 ± 0.61
WLLREIERMDLGDWQLELNI	-0.707 ± 0.83
SFSGYMLDCGEHTQMYSASI	0.185 ± 0.35
DNRSFFWNL	2.22 ± 0.13
FAQFSAWRTTNGRYKHHFTL	-0.256 ± 0.52
DGVEFPFRMIESRFNGCQD	-0.613 ± 0.77
MRISMSVSLLFSYSQYVKLE	-0.238 ± 0.9
WQLLKKCP	-0.576 ± 0.41
VAIRTKPLYLDEYIFMDHMP	0.459 ± 0.68

Substance	amyloid nucleation score
GLTKYV	-0.462 ± 0.28
LNRSGIISITIMTWSFGNAQ	2.75 ± 0.13
QYRGDIYKISG	1.29 ± 0.56
DCWSITILSVNRGSLFRLTF	inactive
LRCLANVDSIICNSV	-0.071 ± 0.9
SICFYSLNSTPSLVGSWWGG	1.3 ± 0.85
VDGLHLNSYYEPVSMMSIVV	-0.336 ± 0.43
CCLTILSIS	-0.281 ± 0.31
IAGFEVARPSNSKTFFPSKF	2.07 ± 0.14
GQKVMIAHGTQETIHGGCCG	-0.275 ± 0.49
SFFDLSEA	0.918 ± 1.1
MYISYLYFCYKRSMYFG	0.718 ± 1.1
TTVPSNV	-0.189 ± 1.7
RTGLY	0.108 ± 0.33
TPGNVG	0.514 ± 0.26
HRILVGGFRSCVMT	0.311 ± 0.32
VATYLLDHVYLNSCQSHCAM	1 ± 0.35
DVKCAVTLVL	-0.055 ± 0.6
YRLRYI	inactive
SYRGVRIGSGGLMYRGANSF	inactive
LMFSIFTYNFGKNWSSKSLG	0.303 ± 0.52
DFEDTYSWKVTGEGATRKRW	0.166 ± 0.49
SNSFALALLPGGT	0.275 ± 0.75
SYQSDDLWQETKPALSPLLE	0.119 ± 0.46
MIRPVFLVFVYMLFCLGNCT	0.383 ± 0.28
VNLNVFLRR	0.059 ± 0.45

Substance	amyloid nucleation score
QTMVTLGSKLIYDESGIVMV	inactive
PTSSMI	0.488 ± 1
SSPDFMFYILNRALA	-0.526 ± 1.4
FVHVYLERDRPNLTPFI	0.084 ± 0.33
KRRGSFKVLYSHSVGLYQSF	2.79 ± 0.14
KLKQVCPLTPVSRVSEQGKK	-0.441 ± 1.1
MSNRISLQQLDRCQDDFMA	0.034 ± 0.38
TSNNLFKRALVGDYNKVAYR	0.572 ± 0.75
CLCLKVFLQKVVRGCNR	1.01 ± 0.29
QCSSANTSGIAETSTSLGRT	-0.244 ± 1.1
VGWSMWNMIRMMVVPVAGPG	0.253 ± 0.35
ADFFESEQVHYKSELAKNHG	0.049 ± 0.69
WTVMVNICLGHCRVLSQLVP	1.79 ± 0.24
SVYKVPVVYGINTRFYFSES	1.18 ± 0.33
TYQTVSKKSEFIMPFGLCSN	-0.011 ± 0.17
ILFDSHANFVGMSCQYRSGR	5.72 ± 0.1
CANFVFCCMGE	7.396 ± 0.072
GFLNYHWAGSYFERGM	3.04 ± 0.13
HRRFLAPME	0.385 ± 0.3
VFNHTVPQSIRFYTYNRSSR	3.87 ± 0.078
GGTRDVFEFHNSDTPDAVYQ	-0.043 ± 0.3
RRGRLYSKLCLCRF	0.874 ± 0.92
NLSTCDE	1.03 ± 0.58
LWVSNSSIRLDRNINQTLAT	0.019 ± 1.4
RLLDFMFVGVLLACFGVQRW	1.39 ± 0.29
LRIVS	-0.11 ± 0.4

Substance	amyloid nucleation score
LLFRNYHMGDLEHLFIFYWY	0.475 ± 0.56
RNINLANHGCSSISLVYLPS	2.8 ± 0.21
YSYNRSIASFFYFMSYCVSL	inactive
TGLLSR	1.33 ± 0.9
GSCGYSTVVDVVCYLDLLLI	0.131 ± 0.43
VGRHALGTSRGKRL	-0.307 ± 0.67
HEVWH	-0.379 ± 0.55
REDKYHIVVT	-0.275 ± 0.28
CDRVGSKEQSFDKWPLWFAP	-1.18 ± 1.9
HRWSDVFPWRTVKMYQLSRC	0.552 ± 0.76
MTMAFRKLFSVVRILMNMRL	0.059 ± 0.3
QLLAVMWKGHHVYRELCGRL	-0.549 ± 0.46
HQVVRSFGELHLLWCRLDEG	0.204 ± 0.45
DWHGLTKVMITW	3.31 ± 0.11
VCSRLDSEQHDHECASQELM	0.106 ± 0.99
DEDDSD	0.471 ± 0.46
VYHIYDG	-0.662 ± 0.43
RNSLNTLSPTARCSVSTFVR	0.562 ± 1.2
ATLHGFLLKICLADVLAYLV	0.476 ± 0.42
NLSVY	-0.232 ± 0.74
HSLSWDNKLCLCSAN	0.099 ± 0.3
RSLNPVISFLN	-0.329 ± 0.69
PYHEMGIYYLGGLYSK	0.743 ± 1.1
NRPHTTYFFSFKSQF	5.61 ± 0.063
GRECLRCTFKMVGWVATEIA	-0.521 ± 0.71
RQPVRAMHLDISVRWSYWSV	2.79 ± 0.12

Substance	amyloid nucleation score
HHNNDSDYKLREN	0.116 ± 0.48
WPCPVVRFLPWKNYISGYSF	0.392 ± 0.64
ICVLKKFLVSIQSVIY	1.46 ± 0.74
FVYLR	0.98 ± 0.55
NFKVQREKGF	inactive
CSSIWHCPVYDVITLM	0.282 ± 0.75
TCRFTHLLFWYFK	0.246 ± 0.97
QPLSLCLVFDCTNISFSFQA	8.594 ± 0.045
VSANICNRIVDGHFSLFYLN	-0.73 ± 0.37
VILFYSR	4.49 ± 0.11
VCLLHNIVKGFARYINSHK	0.423 ± 0.5
PVVGRARRYRREAAENVVLD	0.943 ± 0.6
SAWKDAYFRVDVNEDFVS	0.154 ± 0.32
GRPFALRWLDLGLLTDDPKG	-0.164 ± 0.32
SVSNTYERE	0.879 ± 0.68
ELLACGIKRRVVKTGVRTAY	-0.407 ± 1.2
EHRLR	0.477 ± 0.59
TFVVFFCWLGS	5.12 ± 0.093
YLDSSFFCFLVAIKMDDARH	6.08 ± 0.087
LVCSGKWFVKSARLQ	0.962 ± 0.14
YITAWEWVQRRVV	2.46 ± 0.18
IAPTFSYMMERSLFTVGYDM	-0.042 ± 0.41
VSVFLGSGHRRARGW	-0.482 ± 0.47
GETLEVWFFRRRVIRWR	inactive
DVTLVNFIG	0.285 ± 0.48
LEGHNCADQLLSFLTSSYSL	1.34 ± 0.44
